Source: patent US20070122380A1 (UNIVERSITY OF CONNECTICUT, published 2007)

Molecular target: T1, c-Met (mouse, UniProt P16056 25-1379)
T1 construct: whole, on cells; also called HGFR; HGF receptor
Test: confocal microscopy of cells stained with anti-IL-7R-alpha and anti-c-Met; co-localisation on scIL-7/HGF-beta-stimulated cells and on pre-pro-B cells of normal BM
Description: Consistent with these blocking experiments, approximately 60% of the scIL-7/HGF-beta culture-generated CLPs and pre-pro-B cells expressed both c-Met and the IL-7R, whereas more than 80% at the rIL-7 culture-generated pro-B cells expressed the IL-7R only (data not shown). […] However, as noted previously for native IL-7/HGF-beta, scIL-7/HGF-beta was able to “prime” pre-pro-B/pro-B cells to respond to rIL-7 (FIG. 32D), presumably by up-regulating the IL-7R-alpha chain. […] Direct evidence that both the IL-7R (alpha and gamma-c chains) and c-Met are major components of the receptor complex for IL-7/HGF-beta was provided on Western blots after purification of receptor proteins from culture-generated CLPs/pre-pro-B cells on a scIL-7/HGF-beta affinity gel (FIG. 34).

B1: IL-7R (alpha and gamma-c chains) (receptor, mouse)
chain 1: ESGNAQDGDLEDADADDHSFWCHSQLEVDGSQHLLTCAFNDSDINTANLEFQICGALLRVKCLTLNKLQDIYFIKTSEFLLIGSSNICVKLGQKNLTCKNMAINTIVKAEAPSDLKVVYRKEANDFLVTFNAPHLKKKYLKKVKHDVAYRPARGESNWTHVSLFHTRTTIPQRKLRPKAMYEIKVRSIPHNDYFKGFWSEWSPSSTFETPEPKNQGGWDPVLPSVTILSLFSVFLLVILAHVLWKKRIKPVVWPSLPDHKKTLEQLCKKPKTSLNVSFNPESFLDCQIHEVKGVEARDEVESFLPNDLPAQPEELETQGHRAAVHSANRSPETSVSPPETVRRESPLRCLARNLSTCNAPPLLSSRSPDYRDGDRNRPPVYQDLLPNSGNTNVPVPVPQPLPFQSGILIPVSQRQPISTSSVLNQEEAYVTMSSFYQNK
chain 2: WSSKVLMSSANEDIKADLILTSTAPEHLSAPTLPLPEVQCFVFNIEYMNCTWNSSSEPQATNLTLHYRYKVSDNNTFQECSHYLFSKEITSGCQIQKEDIQLYQTFVVQLQDPQKPQRRAVQKLNLQNLVIPRAPENLTLSNLSESQLELRWKSRHIKERCLQYLVQYRSNRDRSWTELIVNHEPRFSLPSVDELKRYTFRVRSRYNPICGSSQQWSKWSQPVHWGSHTVEENPSLFALEAVLIPVGTMGLIITLIFVYCWLERMPPIPPIKNLEDLVTEYQGNFSAWSGVSKGLTESLQPDYSERFCHVSEIPPKGGALGEGPGGSPCSLHSPYWPPPCYSLKPEA
notes: whole, on cells; also called IL-7 receptor
- binding result: binds
